The test addresses p53 transactivation domain (TAD) (13-61) (human, UniProt P04637 13-61). In words: ITC. In general terms: In ITC the heat of successive injections is recorded.

In general, stoichiometry N refers to the number of molecules, sites or subunits per partner or assembly.

Sequence of p53 transactivation domain (TAD) (13-61) (P04637 13-61): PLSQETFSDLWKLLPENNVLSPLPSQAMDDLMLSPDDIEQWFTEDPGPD

B1: FOXO4 forkhead domain (FHD) (95-195) (domain or fragment)
chain: GSRRNAWGNQSYAELISQAIESAPEKRLTLAQIYEWMVRTVPYFKDKGDSNSSAGWKNSIRHNLSLHSKFIKVHNEATGKSSWWMLNPEGGKSGKAPRRRA
In the case of B1, the dH was 12.3 kcal/mol and the “stoichiometry N” value is 1.04.

(Values after article doi:10.1101/2021.01.11.425814 (bioRxiv, 2021).)
